According to PMC12599251, “Nitration-driven structural changes in Hsp90 linked to gain of pathological functions” (Biochemical Journal, 2025):

B1: Human Hsp90β with Y33 and Y56 replaced by phenylalanine (natural protein)
chain: not shown
notes: Human Hsp90β, UniProtKB P08238, gene HSP90AB1; Y33 and Y56 replaced by nitration-resistant phenylalanine; also called Hsp90^F33-56; Hsp90^F33-F56; source: E. coli BL21-AI, purified (Ni-NTA, Sephacryl-300 SEC)
B2: Human Hsp90β with Y33 and Y56 replaced by phenylalanine, treated with 0.5 mM peroxynitrite (natural protein)
chain: not shown
modifications: oxidised with 0.5 mM peroxynitrite; Y276, Y484 and Y596 are named as also prone to nitration
notes: Human Hsp90β, UniProtKB P08238, gene HSP90AB1; Y33 and Y56 replaced by phenylalanine, oxidised in vitro with peroxynitrite; Peroxynitrite gives a mixed product; also called Hsp90^F33-56 + ONOO^-; Hsp90^F33-F56 + ONOO^-; source: E. coli BL21-AI, purified (Ni-NTA, Sephacryl-300 SEC), then treated with 0.5 mM peroxynitrite

Molecular target: the molecule itself
Assay: AUC; sedimentation velocity, 42,000 rpm, 20°C, 11-15 uM protein, absorbance at 280 nm, continuous c(S) distribution (SEDFIT); peroxynitrite-treated samples dialyzed beforehand

Protein | stoichiometry N
B1 | 2
B2 | 2
